Assay results from patent US20050260210A1 (FACET BIOTECH, published 2005).

Target: T1, mouse α5β1 integrin (mouse, UniProt P11688 45-1053; P09055 21-798)
T1 construct: Named as present on mouse xenograft tumor vasculature
Assay: not described

T1 sequence (P11688 45-1053, chain 1 of 2): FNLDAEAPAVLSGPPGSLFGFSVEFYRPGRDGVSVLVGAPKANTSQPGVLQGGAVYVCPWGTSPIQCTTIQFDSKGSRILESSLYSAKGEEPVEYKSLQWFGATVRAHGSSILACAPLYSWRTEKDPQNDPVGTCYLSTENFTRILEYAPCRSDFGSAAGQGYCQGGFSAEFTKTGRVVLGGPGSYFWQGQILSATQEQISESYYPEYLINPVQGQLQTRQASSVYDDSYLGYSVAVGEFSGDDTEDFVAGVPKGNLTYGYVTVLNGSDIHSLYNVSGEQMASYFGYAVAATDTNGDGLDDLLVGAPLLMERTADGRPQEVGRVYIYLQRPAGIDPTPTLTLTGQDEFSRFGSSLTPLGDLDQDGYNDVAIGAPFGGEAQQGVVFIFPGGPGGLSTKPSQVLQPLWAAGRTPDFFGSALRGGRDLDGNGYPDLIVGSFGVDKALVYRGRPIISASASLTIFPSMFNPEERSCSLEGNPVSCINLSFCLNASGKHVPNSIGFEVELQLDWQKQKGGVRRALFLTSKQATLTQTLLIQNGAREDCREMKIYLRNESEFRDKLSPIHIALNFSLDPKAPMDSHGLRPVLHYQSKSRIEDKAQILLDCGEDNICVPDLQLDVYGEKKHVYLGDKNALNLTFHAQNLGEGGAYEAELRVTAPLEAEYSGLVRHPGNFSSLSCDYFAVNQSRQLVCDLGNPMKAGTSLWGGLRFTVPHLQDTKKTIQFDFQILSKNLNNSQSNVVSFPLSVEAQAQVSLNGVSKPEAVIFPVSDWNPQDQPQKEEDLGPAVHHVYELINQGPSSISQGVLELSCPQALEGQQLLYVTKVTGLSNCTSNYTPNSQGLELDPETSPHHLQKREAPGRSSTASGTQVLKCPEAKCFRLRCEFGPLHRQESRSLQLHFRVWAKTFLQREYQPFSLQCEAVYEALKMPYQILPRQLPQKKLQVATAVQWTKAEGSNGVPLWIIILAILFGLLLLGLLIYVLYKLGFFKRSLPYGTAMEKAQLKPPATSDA
T1 sequence (P09055 21-798, chain 2 of 2): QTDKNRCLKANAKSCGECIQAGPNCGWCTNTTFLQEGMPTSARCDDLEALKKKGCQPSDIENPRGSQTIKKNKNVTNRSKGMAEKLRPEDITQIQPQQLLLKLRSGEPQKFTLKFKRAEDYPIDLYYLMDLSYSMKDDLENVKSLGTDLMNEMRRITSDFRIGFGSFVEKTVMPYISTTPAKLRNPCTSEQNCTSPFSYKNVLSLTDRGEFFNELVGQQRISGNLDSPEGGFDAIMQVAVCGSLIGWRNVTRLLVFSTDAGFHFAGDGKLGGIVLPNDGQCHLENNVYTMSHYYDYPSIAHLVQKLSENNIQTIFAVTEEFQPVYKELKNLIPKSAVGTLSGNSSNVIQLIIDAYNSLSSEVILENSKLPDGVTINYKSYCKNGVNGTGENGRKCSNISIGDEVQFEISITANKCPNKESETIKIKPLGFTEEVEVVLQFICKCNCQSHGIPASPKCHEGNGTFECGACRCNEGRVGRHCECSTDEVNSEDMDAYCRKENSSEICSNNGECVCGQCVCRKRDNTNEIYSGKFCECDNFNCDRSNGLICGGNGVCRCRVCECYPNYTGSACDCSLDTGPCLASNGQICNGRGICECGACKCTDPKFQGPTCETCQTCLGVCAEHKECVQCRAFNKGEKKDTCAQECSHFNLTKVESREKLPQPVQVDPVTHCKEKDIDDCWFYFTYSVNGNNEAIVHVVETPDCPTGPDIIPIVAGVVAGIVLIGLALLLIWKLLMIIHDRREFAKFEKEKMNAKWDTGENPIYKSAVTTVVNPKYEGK

Row | Binder | binding result
1 | IIA1, anti-α5β1 mouse antibody (antibody, mouse IgG1, V domains shown, also called mouse anti-α5β1 antibody) VH: QVQLKESGPGLVAPSQSLSITCTISGFSLTDYGVHWVRQPPGKGLEWLVVIWSDGSSTYNSALKSRMTIRKDNSKSQVFLIMNSLQTDDSAMYYCARHGTYYGMTTTGDALDYWGQGTSVTVSS VL: QIVLTQSPAIMSASLGERVTMTCTASSSVSSNYLHWYQQKPGSAPNLWIYSTSNLASGVPARFSGSGSGTSYSLTISSMEAEDAATYYCHQYLRSPPTFGGGTKLEIK | no binding
2 | M200, chimeric anti-α5β1 antibody (antibody, IgG4, V domains shown, also called volociximab) VH: QVQLKESGPGLVAPSQSLSITCTISGFSLTDYGVHWVRQPPGKGLEWLVVIWSDGSSTYNSALKSRMTIRKDNSKSQVFLIMNSLQTDDSAMYYCARHGTYYGMTTTGDALDYWGQGTSVTVSS VL: QIVLTQSPAIMSASLGERVTMTCTASSSVSSNYLHWYQQKPGSAPNLWIYSTSNLASGVPARFSGSGSGTSYSLTISSMEAEDAATYYCHQYLRSPPTFGGGTKLEIK | no binding
